Assay results reported in PMC5691135, “The semiquinone swing in the bifurcating electron transferring flavoprotein/butyryl-CoA dehydrogenase complex from Clostridium difficile” (Nature Communications, 2017).

Target: the molecule itself
Assay: crystal structure; X-ray structure of the co-produced and co-purified (EtfAB/Bcd)4 complex at 3.1 Å, D state; crystallised in 0.1 M calcium acetate, 14 % (v/v) PEG 400, 0.1 M MES, pH 6.5; protein at 20 mg/ml in 10 mM MOPS and 1 mM FAD, pH 7.0

B1: Butyryl-CoA dehydrogenase (Bcd) of the EtfAB/Bcd complex from Clostridium difficile (enzyme)
chain: MDLNSKKYQMLKELYVSFAENEVKPLATELDEEERFPYETVEKMAKAGMMGIPYPKEYGGEGGDTVGYIMAVEELSRVCGTTGVILSAHTSLGSWPIYQYGNEEQKQKFLRPLASGEKLGAFGLTEPNAGTDASGQQTTAVLDGDEYILNGSKIFITNAIAGDIYVVMAMTDKSKGNKGISAFIVEKGTPGFSFGVKEKKMGIRGSATSELIFEDCRIPKENLLGKEGQGFKIAMSTLDGGRIGIAAQALGLAQGALDETVKYVKERVQFGRPLSKFQNTQFQLADMEVKVQAARHLVYQAAINKDLGKPYGVEAAMAKLFAAETAMEVTTKAVQLHGGYGYTRDYPVERMMRDAKITEIYEGTSEVQRMVISGKLLK
notes: Butyryl-CoA dehydrogenase of Clostridium difficile DSM 1296 (ATCC 9689), gene bcd (CD 1054); N-terminal helical domain 1-116, medial β-sheet domain 117-227, C-terminal helical domain 228-378; Tetramer that forms the core of the (EtfAB/Bcd)4 complex; also called Bcd1; Bcd2
With B1 the “stoichiometry N” value was 4.
